PMC7031210

Molecular target: T1, RecA (B. subtilis) (UniProt P16971)
T1 sequence: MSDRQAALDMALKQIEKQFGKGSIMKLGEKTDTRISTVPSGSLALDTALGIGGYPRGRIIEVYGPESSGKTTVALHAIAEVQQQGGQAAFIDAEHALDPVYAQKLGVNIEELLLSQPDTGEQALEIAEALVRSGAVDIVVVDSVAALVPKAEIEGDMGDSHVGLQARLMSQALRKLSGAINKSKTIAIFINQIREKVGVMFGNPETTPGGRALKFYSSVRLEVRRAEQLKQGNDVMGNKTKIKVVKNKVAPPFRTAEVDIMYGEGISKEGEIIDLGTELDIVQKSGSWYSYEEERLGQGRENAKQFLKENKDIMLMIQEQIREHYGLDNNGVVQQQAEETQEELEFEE

maximal rate of ssDNA-dependent ATP hydrolysis of RecA (650 nM) in the presence of RarA K51A (100 nM), coupled spectrophotometric ATPase assay, 5 mM ATP, 30 min at 37°C: 8.8 min⁻¹
B1: RarA K51A (enzyme)
chain: MKPLAYRMRPTKIEDIIGQQHLVAEDKIIGRMVQAKHLSSMILYGPPGIGATSIATAIAGSTSIAFRKLNAVINNKKDMEIVAQEAKMSGQVILILDEVHRLDKGKQDFLLPYLENGMIILIGATTANPYHAINPAIRSRTQIFELEPLTPELIKQALERALHDEHRGLGTYSVSIDDQAMEHFAHGCGGDVRSALNALELAVLSTKESADGEIHITLETAEECLQKKSFSHDKDGDAHYDVLSAFQKSIRGSDANAALHYLARLIEAGDLESIARRLLVIAYEDIGLASPQAGPRVLNAIQTAERVGFPEARIPLANAVIELCLSPKSNSAILAIDEALADIRAGKIGDVPKHLKDAHYKGAQELGRGIDYKYPHNYDNGWVEQQYLPDPLKNKQYYKPKQTGKFESALKQVYDKLMKRK
